This note sets out measurements from patent US20210253679A1 (NATIONAL RESEARCH COUNCIL OF CANADA, published 2021).

Where a chain is given by its changes, count along the chain named.

The target in assay [1] is T1, human serum albumin (human, UniProt P02768 25-609).
T1 construct: also called HSA
In words: SPR, single cycle kinetics, pH 5.5. Background: SPR reads the build-up and loss of mass on a sensor chip optically.

Assay [2] addresses T1, human serum albumin. The assay is described as follows: SPR, single cycle kinetics, pH 5.5. This is another data set of the same source.
A further assay deals with T2, HSA domain 2 (DII) (human, UniProt P02768 213-409).
T2 construct: domain: DII
The assay is described as follows: SPR, 100 nM VHH over an amine-coupled DII surface.

For assay [3], the target named is T1, human serum albumin. The assay is described as follows: SPR, single cycle kinetics, pH 7.4.
Assay [4] has as its target T3, mouse serum albumin (mouse, UniProt P07724 25-608).
T3 construct: also called MSA
The assay is described as follows: SPR, single cycle kinetics, pH 7.4.

For assay [5], the target named is T4, rat serum albumin (rat, UniProt P02770 25-608).
T4 construct: also called RSA
The assay is described as follows: SPR, single cycle kinetics, pH 7.4.

Assay [6] deals with T5, rhesus serum albumin (rhesus, UniProt Q28522 17-600).
T5 construct: also called RhSA
The assay is described as follows: SPR, single cycle kinetics, pH 7.4.

In assay [7] the target is T1, human serum albumin. The assay is described as follows: SPR, single cycle kinetics, pH 7.4. The source holds these as a separate data set.
Assay [8] deals with T4, rat serum albumin. The assay is described as follows: SPR, single cycle kinetics, pH 5.5.
Assay [9] concerns the target T5, rhesus serum albumin. In words: SPR, single cycle kinetics, pH 5.5.
The target of assay [10] is T4, rat serum albumin. The assay is described as follows: SPR, single cycle kinetics, pH 5.5. The source holds these as a separate data set.
Assay [11] addresses T5, rhesus serum albumin. The assay is described as follows: SPR, single cycle kinetics, pH 5.5. This is another data set of the same source.
Assay [12] deals with T4, rat serum albumin. The assay is described as follows: SPR, single cycle kinetics, pH 7.4. This is another data set of the same source.
For assay [13], the target named is T5, rhesus serum albumin. The assay is described as follows: SPR, single cycle kinetics, pH 7.4. The source holds these as a separate data set.
In assay [14] the target is T3, mouse serum albumin. The assay is described as follows: ITC, pH 7.4. A general note: ITC needs no label: the signal is the heat of the interaction.
The target of assay [15] is T4, rat serum albumin. The assay is described as follows: SPR, pH 7.4; complex binding, data not analyzable.
Assay [16] deals with T5, rhesus serum albumin. The assay is described as follows: SPR, pH 7.4; complex binding, data not analyzable.
For assay [17], the target named is T1, human serum albumin. In words: SPR, pH 7.4; complex binding, data not analyzable.

T3 sequence (P07724 25-608 limits assumed): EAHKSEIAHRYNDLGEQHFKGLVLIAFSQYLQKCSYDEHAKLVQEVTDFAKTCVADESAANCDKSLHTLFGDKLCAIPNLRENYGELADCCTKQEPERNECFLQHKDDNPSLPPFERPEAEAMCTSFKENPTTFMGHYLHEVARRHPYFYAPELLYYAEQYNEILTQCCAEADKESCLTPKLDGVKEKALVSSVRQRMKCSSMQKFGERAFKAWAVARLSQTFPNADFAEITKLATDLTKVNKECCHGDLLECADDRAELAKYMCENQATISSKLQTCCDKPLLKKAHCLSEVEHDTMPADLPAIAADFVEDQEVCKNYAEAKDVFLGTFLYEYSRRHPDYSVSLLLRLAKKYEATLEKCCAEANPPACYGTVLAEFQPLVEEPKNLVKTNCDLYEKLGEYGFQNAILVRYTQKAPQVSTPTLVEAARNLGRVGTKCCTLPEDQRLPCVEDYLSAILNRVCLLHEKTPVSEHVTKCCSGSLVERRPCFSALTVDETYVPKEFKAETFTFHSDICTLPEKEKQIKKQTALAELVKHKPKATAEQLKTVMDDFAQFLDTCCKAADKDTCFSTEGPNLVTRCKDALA

B1: M75 sdAb (VHH)
VHH: QVQLVESGGGFVQAGGSLRLSCAASGRTFDNYVMAWFRQAPGKEREFVASISGSGSITNYANSVKDRFTISRDSAKNAIYLQMNSLKPEDTALYYCAAGSRRTYYREPKFYPSWGQGTQVTVSS
notes: also called M75 VHH
As a reminder, the Kd is the constant that tells how readily two partners part at equilibrium. A high value points to lower affinity. Take B1: the dissociation constant Kd turned out to be 0.735 µM with human serum albumin [1]; 0.735 µM with human serum albumin [2]; 0.0012 µM with human serum albumin [3]; 0.51 µM in the assay with mouse serum albumin [4]; 0.315 µM with rat serum albumin [5]; 0.0029 µM with rhesus serum albumin [6]. Besides, the Kd with human serum albumin [7] amounted to 0.0012 µM. In the assay with HSA domain 2 (DII), the binding result is listed as “no binding (tested: 100 nM)”.

B2: R28 sdAb (VHH)
VHH: QVQLVESGGGLVQAGGSLRLSCVASGRTFIAYAMGWFRQAPGKEREFVAAITNFAGGTTYYADSVKGRFTISRDNAKTTVYLQMNSLKPEDTALYYCAADRSAQTMRQVRPVLPYWGQGTQVTVSS
notes: also called R28 VHH
Consider B2, for which the dissociation constant (Kd) in the assay with rat serum albumin [8] came out at 0.0003 µM; with rhesus serum albumin [9], 0.0059 µM; in the assay with human serum albumin [1], 0.0018 µM; with rat serum albumin [10], 0.0003 µM; with rhesus serum albumin [11] it was 0.006 µM; with human serum albumin [2], 0.0018 µM. The Kd is 0.0004 µM in the assay with rat serum albumin [12]; 0.0382 µM with rhesus serum albumin [13]; 0.0121 µM with human serum albumin [3]; 0.16 µM in the assay with mouse serum albumin [4]; 0.0004 µM with rat serum albumin [5]; 0.038 µM in the assay with rhesus serum albumin [6]. In the assay with human serum albumin [7], the Kd was found to be 0.012 µM.

B3: M79 sdAb (VHH)
VHH: QVKLEESGGGLVQAGGSLKLSCAASGSTFSSSSVGWYRQAPGQQRELVAAITSGGSTNTADSVKGRFTMSRDNAKNTVYLQMRDLKPEDTAVYYCNVAGRNWVPISRYSPGPYWGQGTQVTVSS
notes: also called M79 VHH
Regarding B3, the Kd with rat serum albumin [8] was 0.0071 µM; in the assay with rhesus serum albumin [9], 0.002 µM; with human serum albumin [1] it was 0.0071 µM; with rat serum albumin [10] it was 0.007 µM; with rhesus serum albumin [11], 0.002 µM; with human serum albumin [2], 0.007 µM. Besides, the equilibrium dissociation constant (Kd) was 0.406 µM with mouse serum albumin [14]; 0.0126 µM in the assay with rat serum albumin [12]; 0.0846 µM with rhesus serum albumin [13]; 0.122 µM with human serum albumin [3]; 0.013 µM with rat serum albumin [5]; 0.085 µM with rhesus serum albumin [6]. The molecule further came in with an equilibrium dissociation constant (Kd) with human serum albumin [7] of 0.122 µM.

B4: R11-H4 (VHH)
VHH: QVQLVESGGGLVQPGGSLRLSCAASGFLLRSNTMGWYRQAPGKERELVAFIRPSGLTNYNDAVQGRFTISRDNSKNTLYLQMNSLRAEDTAVYYCHTRPPFQRDSWGQGTLVTVSS
For the molecule B4, the binding result with rat serum albumin [15], with rhesus serum albumin [16] and in the assay with human serum albumin [17] was “binds” throughout.

B5: R11-H3 (VHH)
VHH: B4 VHH with Q1E, A49S
Take B5: the binding result in the assay with rat serum albumin [15] and in the assay with human serum albumin [17] was “binds” throughout.

B6: R11 sdAb (VHH)
VHH: QVKLEESGGGLVQAGGSLRLSCVGPGFLLRSNTMGWYRQAPGKERELVAFIRPSGLTNYNDAVQGRFTISRDNAKNTVYLQMNALKPEDTAVYYCHTRPPFQRDSWGQGTQVTVSS
notes: also called R11 VHH
As for B6, the dissociation constant (Kd) was found to be 0.0299 µM with rat serum albumin [8]; 0.116 µM with rhesus serum albumin [9]; 0.0289 µM with human serum albumin [1]; 0.03 µM with rat serum albumin [10]; 0.116 µM in the assay with rhesus serum albumin [11]; 0.029 µM with human serum albumin [2]. In addition, the equilibrium dissociation constant (Kd) came to 0.014 µM in the assay with mouse serum albumin [14]; 0.0617 µM in the assay with rat serum albumin [12]; 0.159 µM with rhesus serum albumin [13]; 0.0931 µM with human serum albumin [3]; 0.0617 µM with rat serum albumin [5]; 0.159 µM with rhesus serum albumin [6]. Also, the equilibrium dissociation constant (Kd) with human serum albumin [7] stood at 0.093 µM.
